# Reference: the nanobody polyreactivity screen of Harvey et al. (2022)
# Experiment: yeast display, Sf9 membrane polyspecificity reagent, FACS + sequencing; frameworks hold sequencing errors
# Procedure, shortened: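 Galactose induction of a Saccharomyces cerevisiae BJ5465 synthetic nanobody display library ran 36–48 hours. The cells were then stained for 1 hour at 4 °C with 10% biotinylated, detergent-solubilized Sf9 membrane reagent, pulled down on streptavidin microbeads and FACS-sorted into low and high (top ~1%) gates on expression and reagent-binding fluorescence. Labels for polyreactivity follow the gate of origin.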
row,Sequence,polyreactivity (PSR sort gate)
1,QVQLVESGGGLVQAGGSLRLSCAASGRTFYYAMGWYRQAPGKERELVAAISWSGGRTYYADSVKARFTISRDNAKNTVYLQMNSLKPEDTAVYFCAAIYYYSPRDGFIYWGQGTQVTVSS,high polyreactivity
2,QVQLVESGGGLVQAGGSLRLSCAASGRTFYYAMGWYRQAPGKERELVAAITSSSSTYYADSVKGRFTISRDNAKNTVYLQLNSVKPEDTAVYYCNAADDPYGSPSYGYDYWGQGTQVTVSS,low polyreactivity
3,QVQLVESGGGLVQAGGSLRLSCAASGRTFYYNGMAWYRQAPGKERELVAAITSGGTTTYADSVKGLFTISRDNAKNSVYLQMNSVKPEETAVYYSNADYWAVNYDYCGQGTQVTVSS,low polyreactivity
4,QVQLVESGGGLVQAGGSLRLSCAASGRTFYYNTMGWYRQAPGKERELVAAISWRTGSTYYADSVKGRFTISRDNAKNTVYLQMNSLKPEDTAVYYCAAVLFGYPRTIGTWYDRYYYWGQGTQVTVSS,high polyreactivity
5,QVQLVESGGGLVQAGGSLRLSCAASGRTFYYNTMGWYRQAPGKERELVASITSGSSTYYADSVKGRFTISRDNAKNTVYLQMNSLKPEDTEVYYCAVYRRYSVKYHYGYWGQGTQVTVSS,high polyreactivity
6,QVQLVESGGGLVQAGGSLRLSCAASGRTFYYNTMGWYRQAPGKERELVATITSSGGRTYYADSVKGRFTISRDNAKNTVYLQMNSLKPEDTAVYYCNAALSRAFKHSTGYDYWGQGTQVTVSS,low polyreactivity
7,QVQLVESGGGLVQAGGSLRLSCAASGRTFYYYALGWYRQAPGKERELVAVIRSSGDSTYYADSVKGRFTISRDNANNTVYLQMNSLKPEDTAVYYCNADPGEVLVGYDYWGQGTQVTVSS,low polyreactivity
8,QVQLVESGGGLVQAGGSLRLSCAASGRTFYYYAMGGYRQAPGKERELVAAISKSATRTYYADSVKGRFTISRDNAKNTVYLQMNSLKPEDTAVYYCATGQYLRTSRYYYWGQGTQVTVSS,high polyreactivity
9,QVQLVESGGGLVQAGGSLRLSCAASGRTFYYYAMGRYRQAPGKEREFVASISYSGARTYYADSVKGRFTISRDNAKNTVYLQMNSLKPEDTAVYYCAASWRSGRGTYGYWGQGTQVTVSS,high polyreactivity
10,QVQLVESGGGLVQAGGSLRLSCAASGRTFYYYAMGWYRQAPGKEREFVAAISWSGVRTSYADSVKGRFTISRDNAKNTVYLQMNSQKPEDTAVYYCNVAVAFYYDYWYSTYLTYEYDYWGQGTQVTVSS,high polyreactivity
11,QVQLVESGGGLVQAGGSLRLSCAASGRTFYYYAMGWYRQAPGKEREFVAAITTRGGSTYYADSVKGRFTISRDNAKNTVYLQMNSLKPEDTAVYYCAARSYYQGGYYYWGQGTQVTVSS,high polyreactivity
12,QVQLVESGGGLVQAGGSLRLSCAASGRTFYYYAMGWYRQAPGKERELVAAISSRGGSTYYADSVKGRFTISRDNAKNTVYLQMNSLKPEDTAVYYCAAERYFVLYRYYSYAYYYWGQGTQVTVSS,high polyreactivity
13,QVQLVESGGGLVQAGGSLRLSCAASGRTFYYYAMGWYRQAPGKERELVAAISWSGGRTYYADSVKGRFTISRDNAKNTVYLQMNSLKPEDTAVYYCAASSTGYGGSTYYYWGQGTQVTVSS,low polyreactivity
14,QVQLVESGGGLVQAGGSLRLSCAASGRTFYYYAMGWYRQAPGKERELVAGISWSAGSTYYADSVKGRFTISRDYAKNTVYLQMNSLKPEDTAVYYCAARYWQSYRSQVTHSSTLDYWGQGTQVTVSS,low polyreactivity
15,QVQLVESGGGLVQAGGSLRLSCAASGRTFYYYAMGWYRQAPGKERELVASISWSGGSTYYADSVKGRFTISRDNAKNTVYLQMNSLKPEDTAVYYCNAQYHTYRWLYAVYLSGDYWGQGTQVTVSS,low polyreactivity
16,QVQLVESGGGLVQAGGSLRLSCAASGRTFYYYVMGWYRQAPGKEREFVAAITSGGSTNYADSVKGRFTISRDNAKNTVYLQMNSLKPEDTAVYYCAAGKYTIYGYWTPYDYWGQGTQVTVSS,low polyreactivity
17,QVQLVESGGGLVQAGGSLRLSCAASGRTGKNAMGWYRQAPVKERELVAAIRYNGGSTYYADSVKGRFTISRDNAKNTVYLQMNSLKPEDTAVYYCAAASRRHNGSAFNYWGQGTLVTVSS,high polyreactivity
18,QVQLVESGGGLVQAGGSLRLSCAASGRTGVNAMGWYRQAPGKERGMVAAINTSVGRTYYADSVKGRFTISRDNAKNTVYLQMNSLKPEDTAVYYCNTDRLGAARYDYWGQGTQVTVSS,low polyreactivity
19,QVQLVESGGGLVQAGGSLRLSCAASGRTICRNVMGWYRQAPGKERELVAAISRSGGSTYYADSVKGRFTISRDNAKNTVYLQMNSLKPEVTAVYYCAAYSVGDYYWGQGTQVTVSS,high polyreactivity
20,QVQLVESGGGLVQAGGSLRLSCAASGRTIDDYDMGWYRQAPGKERELVADINSGGSTYYADSVKGRFTISRDNAKNTVYLQMNSLKPEDTAVYYCAATLVPWPYTGPRYGYWGQGTQVTVSS,high polyreactivity
21,QVQLVESGGGLVQAGGSLRLSCAASGRTIDHYAMGWYRQAPGKERELVAAISTTGGSTYYADSVKGRFTISRDNAKNTVYLQMNSLKPEDTAVYYCAARGLRTGGYWGQGTQVTVSS,high polyreactivity
22,QVQLVESGGGLVQAGGSLRLSCAASGRTIGAYAMGWYRQAPGKEREFVAAITFGGGPTYYADSVKGRFTISRDNAKNTVYLQMNSLKPEDTAVYYCAKRIDLSLPYARYDYWGQVTQVTVSS,low polyreactivity
23,QVQLVESGGGLVQAGGSLRLSCAASGRTIGGYAMGWYRQAPGKEREMVAAINYSGGTTYYADSVKGRFTISRDNAKNTVYLQMNSLKPEDTAVYYCIRDYHSESGNPGYQYGYWGQGTQVTVSS,high polyreactivity
24,QVQLVESGGGLVQAGGSLRLSCAASGRTIGINAMGWYRQAPGKERELVAVISFGDGGTYYADSVKGRFTISRDNAKNTVYLQMNSLKPEDTEVYYCATDYQSTSVWGGHFVINPYDYWGQGTQVTVSS,low polyreactivity
25,QVQLVESGGGLVQAGGSLRLSCAASGRTIGVYAMGWYRQAPGKERELVAAISWSGGTTYYADSVKGRFTISRDNAKNTVYLQMNSLKPEDTAVYYCAADSYTEVDYWGQGSQVTVSS,low polyreactivity
26,QVQLVESGGGLVQAGGSLRLSCAASGRTIKYYAMGWDRQAPGKERELVAVISWSGGSTYYADSVKGRFTISRDNAKNTVYLQMISLKPEDTAVYYCNAYVYAYYAGYNYWGQGTQVTVSS,high polyreactivity
27,QVQLVESGGGLVQAGGSLRLSCAASGRTILVYAMGWYRQAPGKERELVAAISRSGGSTYYADSVKGRFTISRDNAKNTVYLQMNSLKPEDTAVYYCAAKNTGRYYWGQGTQVTVSS,high polyreactivity
28,QVQLVESGGGLVQAGGSLRLSCAASGRTINPYGMGWYRPAPGKERELVADINSGGITNYADSVKGRFTISRDNAKNTVYLQMNSLKPEDTAVYYCNADGFIQPDDWRNFAGDYWGQGTQVTVSS,low polyreactivity
29,QVQLVESGGGLVQAGGSLRLSCAASGRTIRFNAMGWYRQAQGKESELVAAISFSGGNTYYADSVKGRFTISRDNAKNTVYIQMNSLKPDDTAVYYCAARFTYRYYNYLKYDYWGKGTQVTVSS,high polyreactivity
30,QVQLVESGGGLVQAGGSLRLSCAASGRTIRGYTMGWYRQSAGTERELVATITKRGGSTTYADSVKGRFTISRDNAKNTVYLQMNSLKPEDTAVYYCNKDTITSTLTPYTSWFGYWGQGTQVTVSS,high polyreactivity
